According to publication PMC3099712 (The Journal of Biological Chemistry, 2011):
One block for each binder: values may come before it.

Key:
[1] = biological target: the molecule itself; assay: SDS-PAGE under reducing and non-reducing conditions
[2] = biological target: T1, mouse IGFLR1-Fc (extracellular domain of mouse IGFLR1 fused to human IgG1 Fc) (mouse, UniProt Q3U4N7 21-158); assay: SPR
T1 sequence (looked up): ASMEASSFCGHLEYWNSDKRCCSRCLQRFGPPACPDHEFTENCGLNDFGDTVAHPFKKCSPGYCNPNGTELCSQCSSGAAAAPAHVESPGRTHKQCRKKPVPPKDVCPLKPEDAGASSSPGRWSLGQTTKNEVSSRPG

Kd [2]: 0.15 nM
koff [2]: 0.000157 s⁻¹
kon [2]: 1.02e+06 M⁻¹ s⁻¹
B1: FLAG-mIGFL (mouse insulin growth factor-like protein) (ligand)
chain: ARKISTFSGPGSWPCNPKCDGRTYNPSEECCVHDTILPFKRINLCGPSCTYRPCFELCCPESYSPKKKFIVKLKVHGERSHCSSSPISRNCKSNKIFHGEDIEDNQLSLRKKSGDQP
binding result [1]: binds

B2: FLAG-IGFL1 (human insulin growth factor-like family member 1) (ligand)
chain: GAPVAPMTPYLMLCQPHKRCGDKFYDPLQHCCYDDAVVPLARTQTCGNCTFRVCFEQCCPWTFMVKLINQNCDSARTSDDRLCRSVS
binding result [1]: binds
